Laboratory results published in publication PMC5339304.

Biological target: DC-specific intercellular adhesion molecule 3-grabbing non-integrin (DC-SIGN) (human) (UniProt Q9NNX6)
Assay: atomic force spectroscopy (AFM force spectroscopy); MUB covalently attached to the AFM tip (MAL-PEG-SCM linker), DC-SIGN, SIGN-R1 or Dectin-2 covalently attached to glass slides (GMBS); PBS; force-volume mode, 2 um/s, maximum load force 300 pN; repeated after addition of 0.05 mg/ml anti-Mub antibody

“mucus-binding protein MUB of Lactobacillus reuteri ATCC 53608 (natural protein)” was tested, and the modal value of binding strength was 684 pN.
